Values belong to the binder of their own block, whether it stands above or below them.
Biological target: p95HER2 expressed on cells (p95HER2-HEK293, p95HER2-expressing NCI-H292) (human) (UniProt P04626)
Assay: flow cytometry on p95HER2-expressing NCI-H292 cells, ug/mL is the unit of the x axis

EC50: 0.399 µg/mL
B1: anti-p95HER2 antibody clone R4-5 (antibody, human IgG1, kappa, V domains shown)
VH: QITLKESGPALVKPTQTLTLTCTFSGFSLSTSGVGVGWIRQPPGKALEWLALIYWDDDKRYSPSLKSRLTITKDTSKNQVVLTMTNMDPVDTATYYCAHSRLPYNSHGYWGQGTTVTVSS
VL: DIQMTQSPSSLSASVGDRVTITCQASQAIGNYLSWYQQKPGRAPKLLIYAASTLHSGVPSRFSGSGSGTDFTLTITSLQPDDFATYYCQQSYSVPVTFGLGTKLEIKR

EC50: 0.0659 µg/mL
B2: anti-p95HER2 antibody clone R4-15 (antibody, human IgG1, V domains shown)
VH: QITLKESGPTLVKPTQTLTLTCTFSGFSLSSGGVGVGWIRQPPGKALEWLALIYWDDDKRYSPSLKSRLTITKDTSKKQVVLTMTNMDPVDTATYYCAHLDYPENYFDQWGQGTLVTVSS
VL: DIQMTQSPSSLSASVGDRVTFTCRASQSISTYLNWYQQKPGKAPKLLIYAASTLQSGVPSRFSGSGSGTDFTLAISSLQPEDFATYFCQQSYSFPTFGQGTRLEIKR
